Measurements from article PMC2797330.

Biological target: CD4 on uninfected CEM-4 cells (human (endogenous in CEM-T4)) (UniProt P01730)
Assay: flow cytometry on cells; uninfected CEM-4 cells incubated 2 h at 4°C with gp120MN (0.24 µg/ml), washed; bound gp120 detected with HIVIG (10 µg/ml) and anti-human secondary antibody; % of cells fluorescing

Question: Which % of cells positive (gp120 bound to cells, detected with HIVIG) does the source give for recombinant gp120MN (natural protein) here?
Answer: The % of cells positive (gp120 bound to cells, detected with HIVIG) was 96.2 % positive.
